This is an account of results in the RNAGym collection of RNA variant scans (doi:10.7554/elife.90254).

Sequences and labels used below:
B1: LINE1-full (parent)
chain: UACGUAGGUGGUUUUCCCCUGAUAGUGCUAAGGGGGCCUGGAAGUUUGGACUGGGCAGAGCUCAACACAGCGUGGCAAAGUGGCUGUGGCUAGACUGCCUCUCUGGAUUCCUCGUCACUCAGCAGGGCAUCUCUGAGAGAAAUGCC

This data set covers variants of B1. The experiment in a line: self-cleavage, relative activity (ratio to wild type); higher = more cleavage; in vitro, sequencing; the parent is a self-cleaving ribozyme.
For the variant UACGUAGGUGGUUUUCCCCGGAUAGUGCUAAGGGGGCCUGGAAGUUUGGACUGGGCAGAGCUCAACACAGCGUGGCAAAGUGGCUGUGGCUAGACUGCCUCUCUGGAUUCCCCGUCACUCAGCAGGGCAUCUCUGAGAGAAAUGCC [U20G U112C], the self-cleavage was found to be 0.76.
Turning to UACGUAGGUGGUUUUCCCCUAAUAGUGCUAAGGGGGCCUGGAAGUUUGGACUGGGCAGAGCUCAACACAGCGUGGCAGAGUGGCUGUGGCUAGACUGCCUCUCUGGAUUCCUCGUCACUCAGCAGGGCAUCUCUGAGAGAAAUGCC [G21A A78G], the self-cleavage was determined as 1.31.
In the case of UACGUAGGUGGUUUUCCCCUAAUAGUGCCAAGGGGGCCUGGAAGUUUGGACUGGGCAGAGCUCAACACAGCGUGGCAAAGUGGCUGUGGCUAGACUGCCUCUCUGGAUUCCUCGUCACUCAGCAGGGCAUCUCUGAGAGAAAUGCC [G21A U29C], the self-cleavage was 1.04.
UACGUAGGUGGUUUUCCCCUAAUAGUGCUAAGGGGGCCCGGAAGUUUGGACUGGGCAGAGCUCAACACAGCGUGGCAAAGUGGCUGUGGCUAGACUGCCUCUCUGGAUUCCUCGUCACUCAGCAGGGCAUCUCUGAGAGAAAUGCC [G21A U39C]: the self-cleavage came to 0.78.
The result for UACGUAGGUGGUUUUCCCCUAAUAGUGCUAAGAGGGCCUGGAAGUUUGGACUGGGCAGAGCUCAACACAGCGUGGCAAAGUGGCUGUGGCUAGACUGCCUCUCUGGAUUCCUCGUCACUCAGCAGGGCAUCUCUGAGAGAAAUGCC [G21A G33A] reads 1.39; that for UACGUAGGUGGUUUUCCCCGGAUAGUGCUAAGGGGGCCUGGAAGUUUGGACUGGGCAGAGCUCAACACAGCGUGGCAAAGUGGCUGUGGCUAGACUGCCUCUCUGGAUUCCUCGUCACCCAGCAGGGCAUCUCUGAGAGAAAUGCC [U20G U119C], 1.74.
The same measure for UACGUAGGUGGUUUUCCCCGGAUAGUGCUAAGGAGGCCUGGAAGUUUGGACUGGGCAGAGCUCAACACAGCGUGGCAAAGUGGCUGUGGCUAGACUGCCUCUCUGGAUUCCUCGUCACUCAGCAGGGCAUCUCUGAGAGAAAUGCC [U20G G34A]: 0.69; for UACGUAGGUGGUUUUCCCCGGAUAGUGCUAAGGGGGCCUGGAAGUUUGGACUGGGCAGAGCUCAACACAGCGUGGCAAAGUGGCUGUGGCAAGACUGCCUCUCUGGAUUCCUCGUCACUCAGCAGGGCAUCUCUGAGAGAAAUGCC [U20G U91A]: 0.47.
Turning to UACGUAGGUGGUUUUCCCCUAAUAGUGCUAAGGGGGCCUGGAAGUUUGGACUGGGCAGAGCUCAACACAGCGUGGCAAAGUGGCUGUGGCCAGACUGCCUCUCUGGAUUCCUCGUCACUCAGCAGGGCAUCUCUGAGAGAAAUGCC [G21A U91C], the self-cleavage amounted to 0.35.
The same measure for UACGUAGGUGGUUUUCCCCUAAUAGUGCUAAGGGGGCCUGGAAGUUUGGACUGGGCAGAGCUCAACGCAGCGUGGCAAAGUGGCUGUGGCUAGACUGCCUCUCUGGAUUCCUCGUCACUCAGCAGGGCAUCUCUGAGAGAAAUGCC [G21A A67G]: 0.48.
The result for UACGUAGGUGGUUUUCCCCGGAUAGUGCUAAGGGGGCCUGGAAGUUUGGACUGGGCAGAGCUCAACACAGCGUGGCAAAGUGGCAGUGGCUAGACUGCCUCUCUGGAUUCCUCGUCACUCAGCAGGGCAUCUCUGAGAGAAAUGCC [U20G U85A] reads 0.24; that for UACGUAGGUGGUUUUCCCCUAAUAGUGCUAAGGGGGCCUGGAAGUUUGGACUGGGCAGGGCUCAACACAGCGUGGCAAAGUGGCUGUGGCUAGACUGCCUCUCUGGAUUCCUCGUCACUCAGCAGGGCAUCUCUGAGAGAAAUGCC [G21A A59G], 0.04; that for UACGUAGGUGGUUUUCCCCGGAUAGUGCUAAGGGGGCCUGGAAGUUUGGACUGGGCAGAGCUCAACACAGCGUGGCAAAGUGGCUGUGGCUAGACCGCCUCUCUGGAUUCCUCGUCACUCAGCAGGGCAUCUCUGAGAGAAAUGCC [U20G U96C], 0.26.
As to UACGUAGGUGGUUUUCCCCUAAUAGUGCUAAGGGGGCCUGGAAGUUUGGACUGGGCAGAGCUCAUCACAGCGUGGCAAAGUGGCUGUGGCUAGACUGCCUCUCUGGAUUCCUCGUCACUCAGCAGGGCAUCUCUGAGAGAAAUGCC [G21A A65U], the self-cleavage came out at 0.21.
The same measure for UACGUAGGUGGUUUUCCCCUAAUAGUGCUAAGGGGGCCUGGAAGUUUGGACUGGGCAGAGCUCAACACAGCGUGGCAAAGUGGCUGUGGCUAGACUGCCUCUCUGGAUUCCUCGUCUCUCAGCAGGGCAUCUCUGAGAGAAAUGCC [G21A A117U]: 1.55; for UACGUAGGUGGUUUUCCCCGGAUAGUGCUAAGGGGGCCUGGAAGUUUAGACUGGGCAGAGCUCAACACAGCGUGGCAAAGUGGCUGUGGCUAGACUGCCUCUCUGGAUUCCUCGUCACUCAGCAGGGCAUCUCUGAGAGAAAUGCC [U20G G48A]: 0.43; for UACGUAGGUGGUUUUCCCCUAAUAGUGCUAAGGGGGCCUGGAAGUCUGGACUGGGCAGAGCUCAACACAGCGUGGCAAAGUGGCUGUGGCUAGACUGCCUCUCUGGAUUCCUCGUCACUCAGCAGGGCAUCUCUGAGAGAAAUGCC [G21A U46C]: 1.31.
For the variant UACGUAGGUGGUUUUCCCCUAAUAGUGCUAAGGGGGCCUGGAAGUUUGGACUGGGCAGAGCUCAACACAGCGUGGCAAAGUGGCCGUGGCUAGACUGCCUCUCUGGAUUCCUCGUCACUCAGCAGGGCAUCUCUGAGAGAAAUGCC [G21A U85C], the self-cleavage came out at 0.18.
The result for UACGUAGGUGGUUUUCCCCUAAUAGUGCUAAGGGGGCCUGGAAGUUUGGACUGGGCAGAGCUCAACACAGCGUGGCAAAGAGGCUGUGGCUAGACUGCCUCUCUGGAUUCCUCGUCACUCAGCAGGGCAUCUCUGAGAGAAAUGCC [G21A U81A] reads 1.8.
The same measure for UACGUAGGUGGUUUUCCCCGGAUAGUGCUAAGGGGGCCUGUAAGUUUGGACUGGGCAGAGCUCAACACAGCGUGGCAAAGUGGCUGUGGCUAGACUGCCUCUCUGGAUUCCUCGUCACUCAGCAGGGCAUCUCUGAGAGAAAUGCC [U20G G41U]: 0.84.
UACGUAGGUGGUUUUCCCCGGAUAGUGCUAAGGGGGCCUGGAAGUUUGGACUGGGCAGAGCUCAACACAGCGUGGCAAAGUGGCUGUGGCUAGACUGCCUCUCUGGACUCCUCGUCACUCAGCAGGGCAUCUCUGAGAGAAAUGCC [U20G U108C]: the self-cleavage turned out to be 1.97.
UACGUAGGUGGUUUUCCCCUAAUAGUGCUAAGGGGGCCUGGAAGUUUGGACUGGGCAGAGCUCAACACAGCGUGGCAAAGUGGCUGUGGCUAGACUGCCUCUCUGGAUUCCUCGUCACUCAGCAGGGCAUCUCUGAGAGAAAUGCU [G21A C146U]: the self-cleavage is 1.56.
The same measure for UACGUAGGUGGUUUUCCCCUAAUAGUGCUAUGGGGGCCUGGAAGUUUGGACUGGGCAGAGCUCAACACAGCGUGGCAAAGUGGCUGUGGCUAGACUGCCUCUCUGGAUUCCUCGUCACUCAGCAGGGCAUCUCUGAGAGAAAUGCC [G21A A31U]: 1.43; for UACGUAGGUGGUUUUCCCCGGAUAGUGCUAAGGGGGCCUGGAAGUUUGGACUGGGCAGAGCUCAACACAGCGUGGCAAAGAGGCUGUGGCUAGACUGCCUCUCUGGAUUCCUCGUCACUCAGCAGGGCAUCUCUGAGAGAAAUGCC [U20G U81A]: 2.03; for UACGUAGGUGGUUUUCCCCGGAUAGUGCUAAGGGGGCCUGGAAGUUUGGACUGGGCAGAGCUCAACACAGCGUGGCAAAGCGGCUGUGGCUAGACUGCCUCUCUGGAUUCCUCGUCACUCAGCAGGGCAUCUCUGAGAGAAAUGCC [U20G U81C]: 1.08.
The same measure for UACGUAGGUGGUUUUCCCCUAAUAGUGUUAAGGGGGCCUGGAAGUUUGGACUGGGCAGAGCUCAACACAGCGUGGCAAAGUGGCUGUGGCUAGACUGCCUCUCUGGAUUCCUCGUCACUCAGCAGGGCAUCUCUGAGAGAAAUGCC [G21A C28U]: 1.22; for UACGUAGGUGGUUUUCCCCUAAUAGUGCUAAGGGGGCCUGGAAGUUUGGACUGGGCAGAGCUCAACACAGCGUGGCAAAGUGGCUGUGGCUAGACUGCCUCUCUGGAUUCCUCGUCACUCAGCAGGGCAUCUCUGAGAGAAGUGCC [G21A A142G]: 1.66; for UACGUAGGUGGUUUUCCCCUAAUAGUGCUAAGGGGGCCUGGAAGUUUGGGCUGGGCAGAGCUCAACACAGCGUGGCAAAGUGGCUGUGGCUAGACUGCCUCUCUGGAUUCCUCGUCACUCAGCAGGGCAUCUCUGAGAGAAAUGCC [G21A A50G]: 0.71.
The same measure for UACGUAGGUGGUUUUCCCCUAAUAGUGCUAAGGGGGCCUGGAAGUUUGGCCUGGGCAGAGCUCAACACAGCGUGGCAAAGUGGCUGUGGCUAGACUGCCUCUCUGGAUUCCUCGUCACUCAGCAGGGCAUCUCUGAGAGAAAUGCC [G21A A50C]: 0.9; for UACGUAGGUGGUUUUCCCCGGAUAGUGCUAAGGGGGCCUGGAAGUUUGGACUGGGCAGAGCUCAACACAGCGUGGCAAAGUGGCUGUGGCUAGAUUGCCUCUCUGGAUUCCUCGUCACUCAGCAGGGCAUCUCUGAGAGAAAUGCC [U20G C95U]: 0.29.
In the case of UACGUAGGUGGUUUUCCCCUAAUAGUGCUAAGGGGGCCUGGAAGUUUGGACUGGGCAGAGCUCAACACAGCGUGGCAAAGUGGCUGUGGCUAGACUGCCUCUCUGGAUUCCUCGUCACUCAGCAGGGCUUCUCUGAGAGAAAUGCC [G21A A129U], the self-cleavage was 1.17.
The result for UACGUAGGUGGUUUUCCCCUAAUAGUGCUAAGGGGGCCUGGAAGUUUGGACUGGGCAGAGCUCAACACAGCGUGGCGAAGUGGCUGUGGCUAGACUGCCUCUCUGGAUUCCUCGUCACUCAGCAGGGCAUCUCUGAGAGAAAUGCC [G21A A77G] reads 2.18.
On to UACGUAGGUGGUUUUCCCCUAAUAGUGCUAAGGGGGCCUGGAAGUUUGGACUGGGCAGAGCUCAACACAGCGUGGCUAAGUGGCUGUGGCUAGACUGCCUCUCUGGAUUCCUCGUCACUCAGCAGGGCAUCUCUGAGAGAAAUGCC [G21A A77U], for which the self-cleavage amounted to 1.18.
The result for UACGUAGGUGGUUUUCCCCGGAUAGUGCUAAGGGGGACUGGAAGUUUGGACUGGGCAGAGCUCAACACAGCGUGGCAAAGUGGCUGUGGCUAGACUGCCUCUCUGGAUUCCUCGUCACUCAGCAGGGCAUCUCUGAGAGAAAUGCC [U20G C37A] reads 1.04.
Consider UACGUAGGUGGUUUUCCCCUAAUAGUGCUAAGGGGGCCUGGAAGUUUGGACUGGGCAGAGCUCAACACAGCGUGGCAAAGUGGCUGUGGCUAGACUGCCUCUCUGGAUUCCUCGUCACUCAGCAGGGCAUCUCUGAGAGGAAUGCC [G21A A140G], for which the self-cleavage amounted to 1.3.
The same measure for UACGUAGGUGGUUUUCCCCUAAUAGUGCUAAGGGGGCCUGGAAGUUUGGACUGGGCAGAGCUCAACACAGCGUGGCAAAGUGGCUGUGGCUAGGCUGCCUCUCUGGAUUCCUCGUCACUCAGCAGGGCAUCUCUGAGAGAAAUGCC [G21A A94G]: 0.1.
Take UACGUAGGUGGUUUUCCCCUAAUAGUGCUAAGGGGGCCUGGAAGCUUGGACUGGGCAGAGCUCAACACAGCGUGGCAAAGUGGCUGUGGCUAGACUGCCUCUCUGGAUUCCUCGUCACUCAGCAGGGCAUCUCUGAGAGAAAUGCC [G21A U45C]: the self-cleavage turned out to be 0.84.
The same measure for UACGUAGGUGGUUUUCCCCUAAUAGUGCUAAGGGGGCCUGGAAGAUUGGACUGGGCAGAGCUCAACACAGCGUGGCAAAGUGGCUGUGGCUAGACUGCCUCUCUGGAUUCCUCGUCACUCAGCAGGGCAUCUCUGAGAGAAAUGCC [G21A U45A]: 1.58; for UACGUAGGUGGUUUUCCCCUAAUAGUGCUAAGGGGGCCUGGAAGUUUGGACUGGGCAGAGCUCAACACAGCGUGGCAAAGUAGCUGUGGCUAGACUGCCUCUCUGGAUUCCUCGUCACUCAGCAGGGCAUCUCUGAGAGAAAUGCC [G21A G82A]: 2.
